Reference: patent publication US20220411504A1

Assays:
HLA-C on cells (human) = HLA-C on cells (human) (UniProt P10321); experiment: flow cytometry, IgG1 mAb on cells expressing HLA-C
HLA-B on cells (human) = HLA-B on cells (human) (UniProt P01889); experiment: flow cytometry, IgG1 mAb on cells expressing HLA-B
HLA-A on cells (human) = HLA-A on cells (human) (UniProt P04439); experiment: flow cytometry, IgG1 mAb on cells expressing HLA-A
[1] = molecular target: human Kallikrein-2 6-His protein (soluble hK2) (human) (UniProt P20151); experiment: SPR, antibody captured by anti-Fc, soluble hK2 injected

B1: MHGB689 (antibody, human IgG1, kappa, V domains shown)
VH: QVQLQQSGPGLVKPSQTLSLTCVISGDSVSSNRAAWNWIRQSPSRGLEWLGRTYYRSKWYNDYAVSVKSRITINSDTSKNQISLQLNSVTPEDTAVYYCARVRPGIPFDYWGQGTTVTVSS
VL: DIQMTQSPDSLAVSLGERATINCESSQSVLFSSNKKNYLAWYQQKPGQPPKLLIYWASTRESGVPDRFSGSGSGTDFTLTINRLQAEDVAVYYCQQYNSTPWTFGQGTKVEIKR
Which results are given for B1?
GeoMean fluorescence (maximum value) (HLA-C on cells (human)): 266; GeoMean fluorescence (maximum value) (HLA-B on cells (human)): 5790; GeoMean fluorescence (maximum value) (HLA-A on cells (human)): 2540

B2: KL2B413 (scFv-LH-Fc) (Fc fusion, not shown: a dimerising Fc or GST)
scFv: EIVLTQSPSFLSASVGDRVTITCRASQGISSYLSWYQQKPGKAPKLLIYATSTLQSGVPSRFSGSGSGTEFTLTISSLQPEDFATYYCQQLNSYPRTFGQGTKVEIKGGSEGKSSGSGSESKSTGGSEVQLVESGGGLVQPGGSLRLSCAASGFTFSSYWMTWVRQAPGKGLEWVANIKQDGSERYYVDSVKGRFTISRDNAKNSLYLQMNSLRAEDTAVYYCARDQNYDILTGHYGMDVWGQGTTVTVSS
Which Kd [1] does the source give for B2 here?
The Kd was 34.3 nM.

B3: KL2B53 (antibody, human IgG4 S228P, kappa, F234A L235A, V domains shown)
VH: EVQLVESGGGVVQPGRSLRLSCVASGFTFSSYDIHWVRQAPGKGLEWVAIISYDGSKKDYTDSVKGRFTISRDNSKNTLYLQMDSLRVEDSAVYSCARESGWSHYYYYGMDVWGQGTMVTVSS
VL: DIVMTQSPSSLSASVGDRVTITCRASQDISNYLAWYQQKPGKVPKFLIYAASTLHSGVPSRFSGSGSGTDFTLTISSLQPEDVATYYCQKYNSAPYTFGQGTRLEIKR
With B3 as the binder, how does the Kd [1] read?
The Kd was 0.08 nM.

B4: KL2B30 (antibody, human IgG4 S228P, kappa, F234A L235A, V domains shown)
VH: QVQLQESGPGLVKPSETLSLTCTVSGGSISSYYWSWIRQPPGKGLEWIGYIYYSGSTNYNPSLKSRVTISVDTSKNQFSLKLSSVTAADTAVYYCAGTTIFGVVTPNFYYGMDVWGQGTTVTVSS
VL: DIQMTQSPSFLSASVGDRVTITCRASQGISSYLAWYQQKPGKAPKFLIYAASTLQSGVPSRFSGSGSGTEFTLTISSLQPEDFATYYCQQLNSYPLTFGGGTKVEIKR
With B4 as the binder, how does the Kd [1] read?
The Kd was 0.46 nM.

B5: KL2B359 (scFv-LH-Fc) (Fc fusion, not shown: a dimerising Fc or GST)
scFv: EIVLTQSPATLSLSPGERATLSCRASESVEYFGTSLMHWYQQKPGQPPRLLIYAASNVESGIPARFSGSGSGTDFTLTISSVEPEDFAVYFCQQTRKVPYTFGGGTKVEIKGGSEGKSSGSGSESKSTGGSQVQLQESGPGLVKPSQTLSLTCTVSGNSITSDYAWNWIRQFPGKRLEWIGYISYSGSTTYNPSLKSRVTISRDTSKNQFSLKLSSVTAADTAVYYCATGYYYGSGFWGQGTLVTVSS
Which Kd [1] does the source give for B5 here?
Its Kd is 0.7 to 1 nM.

B6: KL2B242 (antibody, human IgG4 S228P, lambda, F234A L235A, V domains shown)
VH: QVQLQESGPGLVKPSETLSLTCTVSGGSISSYYWSWLRQPAGSGLEWIGRLYVSGFTNYNPSLKSRVTLSLDPSRNQLSLKLSSVTAADTAVYYCAGDSGNYWGWFDPWGQGTLVTVSS
VL: SYELTQPPSVSVSPGETASITCSGDQLGENYACWYQQKPGQSPVLVIYQDSKRPSGIPERFSGSNSGNTATLTISGTQALDEADYYCQAWDNSIVVFGGGTKLTVLG
B6 was tested. Which Kd [1] did it give?
Its Kd is 0.04 nM.
